The source of these data is article PMC8546573.

Test [1] has as its target biotinylated soluble human PDGFRα (UniProt P16234). Briefly: cell-based binding (staining of transfected 293E cells with soluble PDGFRα and 13H11 scFv). To be noted: read off a plot.
The target in test [2] is HCMV gHgLgO trimer with full-length gH on HEK293-6E cells, gO K359A (human cytomegalovirus, strain AD169 | human cytomegalovirus, strain TR) (UniProt P12824). Briefly: flow cytometry on cells; HEK293-6E cells cotransfected with full-length gH, gL and gO (wt or mutant) stained with 4 μg/ml biotinylated PDGFRα in PBS with 0.5% BSA, room temperature, half an hour, then Alexa Fluor 647-streptavidin; PDGFRα staining set against staining by the gH antibody 13H11 and compared with wt.

In test [3] the target is HCMV gHgLgO trimer with full-length gH on HEK293-6E cells, gO R214A (human cytomegalovirus, strain AD169 | human cytomegalovirus, strain TR) (UniProt P12824). Described as above.
Test [4] deals with HCMV gHgLgO trimer with full-length gH on HEK293-6E cells, gO Y240A (human cytomegalovirus, strain AD169 | human cytomegalovirus, strain TR) (UniProt P12824). The test is described as above.
Test [5] concerns the target HCMV gHgLgO trimer with full-length gH on HEK293-6E cells, gO R236A (human cytomegalovirus, strain AD169 | human cytomegalovirus, strain TR) (UniProt P12824). The description is as above.
The target in test [6] is HCMV gHgLgO trimer with full-length gH on HEK293-6E cells, gO R236N/P238S (human cytomegalovirus, strain AD169 | human cytomegalovirus, strain TR) (UniProt P12824). The description is as above.

For “HCMV gHgLgO trimer with full-length gH on the surface of HEK293-6E cells, gO wild type (from UniProt P12824;P16832) gO:E346A”, in test [1], the other: ratio of PDGFRα/13H11 binding was 1.2. Take “HCMV gHgLgO trimer with full-length gH on the surface of HEK293-6E cells, gO wild type (from UniProt P12824;P16832) gO:R239A”: in test [1], the other: ratio of PDGFRα/13H11 binding was determined as 1.1. Consider “HCMV gHgLgO trimer with full-length gH on the surface of HEK293-6E cells, gO wild type (from UniProt P12824;P16832) gO:R232A”, for which, in test [1], the other: ratio of PDGFRα/13H11 binding came out at 0.96.

Regarding “HCMV gHgLgO trimer with full-length gH on the surface of HEK293-6E cells, gO wild type (from UniProt P12824;P16832) gO:P343A”, the other: ratio of PDGFRα/13H11 binding in test [1] is 1.2. Take “HCMV gHgLgO trimer with full-length gH on the surface of HEK293-6E cells, gO wild type (from UniProt P12824;P16832) gO:R349A”: in test [1], the other: ratio of PDGFRα/13H11 binding was 1.

Consider “HCMV gHgLgO trimer with full-length gH on the surface of HEK293-6E cells, gO wild type (from UniProt P12824;P16832) gO:F113N”, for which the other: ratio of PDGFRα/13H11 binding in test [1] came out at 0.73. As for “HCMV gHgLgO trimer with full-length gH on the surface of HEK293-6E cells, gO wild type (from UniProt P12824;P16832) gO:Q117A”, the other: ratio of PDGFRα/13H11 binding in test [1] came out at 0.81.

On to “HCMV gHgLgO trimer with full-length gH on the surface of HEK293-6E cells, gO wild type (from UniProt P12824;P16832) gO:F113A”, for which, in test [1], the other: ratio of PDGFRα/13H11 binding came to 0.75. The same measure, in the same setting: with “HCMV gHgLgO trimer with full-length gH on the surface of HEK293-6E cells, gO wild type (from UniProt P12824;P16832) gO:K123A” the figure was 0.87; with “HCMV gHgLgO trimer with full-length gH on the surface of HEK293-6E cells, gO wild type (from UniProt P12824;P16832) gO:Y371A”, 1.1. The same measure, in the same setting: with “HCMV gHgLgO trimer with full-length gH on the surface of HEK293-6E cells, gO wild type (from UniProt P12824;P16832) gO:F138A” the figure was 0.82. Take “biotinylated soluble human PDGFRα (from UniProt P16234 24-528) (receptor)”: the percent of wild-type binding is < 33 % of wt in test [2]; < 33 % of wt in test [3]; < 33 % of wt in test [4]; < 33 % of wt in test [5]; 50 % of wt in test [6].

Turning to “HCMV gHgLgO trimer with full-length gH on the surface of HEK293-6E cells, gO wild type (from UniProt P12824;P16832) gO:T116A”, the other: ratio of PDGFRα/13H11 binding in test [1] is 0.62. For the substance “HCMV gHgLgO trimer with full-length gH on the surface of HEK293-6E cells, gO wild type (from UniProt P12824;P16832) gO:R119A”, the other: ratio of PDGFRα/13H11 binding in test [1] stood at 0.9. For “HCMV gHgLgO trimer with full-length gH on the surface of HEK293-6E cells, gO wild type (from UniProt P12824;P16832) gO:K194A”, in test [1], the other: ratio of PDGFRα/13H11 binding was 1.1. On the same count and under the same terms, with “HCMV gHgLgO trimer with full-length gH on the surface of HEK293-6E cells, gO wild type (from UniProt P12824;P16832) gO:R338A” the figure was 0.95.
